Experimental data as given in publication PMC10406935.

Assays:
[1] = target: MslH (lasso peptide epimerase), N-terminally His6-tagged, wild type (Streptomyces griseorubiginosus); test: crystal structure; MslH:apo, His6-MslH 5 mg/ml, sitting-drop vapor diffusion, 20 °C; space group I422, one monomer in the asymmetric unit; 2.30 Å
[2] = target: MslH (lasso peptide epimerase), N-terminally His6-tagged, wild type (Streptomyces griseorubiginosus); test: crystal structure; co-crystallisation: purified His6-MslA analogue-MslB1 complex mixed with His6-MslH (5 mg/ml) at 1.2:1 mole ratio 16 h before the precipitant; sitting drops, 20 °C; one monomer in the asymmetric unit
[3] = target: MslH (lasso peptide epimerase), N-terminally His6-tagged, wild type (Streptomyces griseorubiginosus); test: SEC; gel-filtration of purified recombinant His6-MslH; apparent molecular weight against the 49.4 kDa calculated for the monomer

Measured: stoichiometry N

MslH (lasso peptide epimerase), N-terminally His6-tagged, wild type (enzyme)
8: all assays above
